From patent publication CN108727489A (GUANGZHOU 8TH PEOPLES HOSPITAL; UNIV TSINGHUA, dated 2018)

Experiments:
E-His 6 融合蛋白 = target: T1, E-His 6 融合蛋白 (Zika virus, UniProt A0A024B7W1 292-693); assay: ELISA screen of memory B cell culture supernatants on coated E-His6 fusion protein
T1 construct: Expressed in 293T cells, purified on a Ni column and by gel filtration; Used as the ELISA coating antigen; also called E-His6 fusion protein; 寨卡病毒的E蛋白

[1] = target: 寨卡病毒GZ01株的E蛋白 (on virus particles) (Zika virus GZ01 strain); assay: cell-based or functional assay

T1 sequence (A0A024B7W1 292-693, tags left off): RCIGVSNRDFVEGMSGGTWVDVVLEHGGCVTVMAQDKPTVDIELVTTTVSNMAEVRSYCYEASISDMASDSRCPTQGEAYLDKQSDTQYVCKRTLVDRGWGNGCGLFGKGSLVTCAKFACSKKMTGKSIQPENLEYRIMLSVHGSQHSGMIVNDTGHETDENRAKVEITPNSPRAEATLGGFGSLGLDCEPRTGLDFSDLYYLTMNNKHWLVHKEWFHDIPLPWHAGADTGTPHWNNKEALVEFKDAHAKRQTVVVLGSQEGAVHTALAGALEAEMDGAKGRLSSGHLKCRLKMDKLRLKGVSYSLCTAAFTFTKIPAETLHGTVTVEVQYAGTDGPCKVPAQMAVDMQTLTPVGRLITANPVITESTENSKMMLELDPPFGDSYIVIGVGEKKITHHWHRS

B1: ZK2C2 (antibody, human IgG1, lambda, V domains shown)
VH: EVQLLESGGGVVQPGRSLRLSCAGSGFTFSSYGMHWVRQAPGKGLEWVAVISYDGSNKYYVDSVKGRFTISRDNSRNTLYLQMNNLKAEDTAVYYCAKGHLIDWGQGTLVTVSS
VL: QLVLTQPPSASGTPGQRVTISCSGSSSNIGRNIVNWYQQFPGTTPKLLIYGTNQRPSGVPDRFSGSKSGTSASLAISGLQSEDETNYYCAAWDDSLNGWLFGGGTKLTVLG
notes: also called 单克隆抗体ZK2C2; ZK2C2抗体
binding result (E-His 6 融合蛋白): binds
中和百分比为50%时的抗体浓度 (IC50), plaque reduction on Vero cells [1]: 3.8 µg/mL
